Assay results taken from patent US20240116985A1, “STAPLED PEPTIDES AND METHODS THEREOF” (priority 2020, published 2024).
Several values for one entry are separate records, joined by “and”; a condition that tells them apart may be missing. Equal entries are not always repeated. Starred links: 1 amine or outer side, 2 acyl side, 3 side chain; linkers in the order of their positions; H or OH if unused. Positions of bridges follow the written chain, without caps; N, C: chain ends. Non-standard residues stand in square brackets, D forms with d. PyrS2 = (S)-3-amino-1-((pent-4-en-1-yloxy)carbonyl)pyrrolidine-3-carboxylic acid, C=CCCCOC(=O)N1CC[C@@](N[*:1])(C(=O)[*:2])C1; B5 = 2-amino-2-(pent-4-en-1-yl)hept-6-enoic acid, C=CCCCC(CCCC=C)(N[*:1])C(=O)[*:2]; Bta = N[C@@H](Cc1csc2ccccc12)C(=O)O; αAllylPro = C=CC[C@@]1(C(=O)O)CCCN1; tBuAla = CC(C)(C)C[C@H](N)C(=O)O; 3Thi = N[C@@H](Cc1ccsc1)C(=O)O

What was measured:
[1] = biological target: B-cat-Halo (beta-catenin HaloTag NanoBRET construct expressed in HEK293 cells) (UniProt P35222); assay: NanoBRET in HEK293 cells, Bcat-Halo + TCF4-Luc, peptide at 10 uM
Chain of B-cat-Halo (beta-catenin HaloTag NanoBRET construct expressed in HEK293 cells) (P35222 whole entry): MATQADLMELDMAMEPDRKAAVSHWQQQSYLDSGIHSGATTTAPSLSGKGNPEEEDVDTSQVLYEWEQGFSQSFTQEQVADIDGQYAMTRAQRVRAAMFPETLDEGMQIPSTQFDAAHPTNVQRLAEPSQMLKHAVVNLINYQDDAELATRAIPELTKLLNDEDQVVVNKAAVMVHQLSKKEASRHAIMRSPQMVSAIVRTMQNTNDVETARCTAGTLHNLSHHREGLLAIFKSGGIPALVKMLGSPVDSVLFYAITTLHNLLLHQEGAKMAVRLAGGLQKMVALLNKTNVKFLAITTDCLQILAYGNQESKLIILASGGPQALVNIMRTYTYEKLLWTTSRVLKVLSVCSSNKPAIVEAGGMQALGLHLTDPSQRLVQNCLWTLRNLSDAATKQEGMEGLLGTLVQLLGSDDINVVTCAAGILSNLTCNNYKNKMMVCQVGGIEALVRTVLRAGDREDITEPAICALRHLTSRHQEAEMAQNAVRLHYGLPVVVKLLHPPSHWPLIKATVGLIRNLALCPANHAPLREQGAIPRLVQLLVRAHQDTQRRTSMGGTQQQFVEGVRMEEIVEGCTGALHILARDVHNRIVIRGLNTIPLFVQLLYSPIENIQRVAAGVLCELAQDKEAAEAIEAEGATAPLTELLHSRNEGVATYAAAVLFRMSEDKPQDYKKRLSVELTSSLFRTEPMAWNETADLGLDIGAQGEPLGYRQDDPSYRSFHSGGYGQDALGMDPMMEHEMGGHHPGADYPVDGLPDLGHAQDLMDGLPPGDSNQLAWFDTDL

[2] = biological target: beta-catenin-Halo (NanoBRET construct expressed in HEK293 cells) (Homo sapiens (Human)) (UniProt P35222); assay: NanoBRET, HEK293 cells with Bcat-Halo and TCF4-Luc; plate row G (0.625 uM by plate map), plate column 6
Chain of beta-catenin-Halo (NanoBRET construct expressed in HEK293 cells) (Homo sapiens (Human)) (P35222 whole entry): as above

[3] = biological target: beta-catenin-Halo NanoBRET construct (Homo sapiens (Human)) (UniProt P35222); assay: NanoBRET, Bcat-Halo/TCF4-Luc in HEK293 cells; peptide 1.25 uM; replicate 2; competitor TCF4-Luc
Chain of beta-catenin-Halo NanoBRET construct (Homo sapiens (Human)) (P35222 whole entry): as above

[4] = biological target: beta-catenin-Halo NanoBRET construct (Homo sapiens (Human)) (UniProt P35222); assay: NanoBRET raw acceptor reading, Bcat-Halo/TCF4-Luc in HEK293 cells; plate row B (20 uM by plate map); competitor TCF4-Luc
[5] = biological target: beta-catenin-Halo NanoBRET construct (Homo sapiens (Human)) (UniProt P35222); assay: NanoBRET, Bcat-Halo/TCF4-Luc in HEK293 cells; peptide 5 uM; replicate 1; competitor TCF4-Luc
[6] = biological target: beta-catenin-Halo NanoBRET construct (Homo sapiens (Human)) (UniProt P35222); assay: NanoBRET, Bcat-Halo/TCF4-Luc in HEK293 cells; peptide 10 uM; replicate 3; competitor TCF4-Luc
[7] = biological target: beta-catenin-Halo NanoBRET construct (Homo sapiens (Human)) (UniProt P35222); assay: NanoBRET, Bcat-Halo/TCF4-Luc in HEK293 cells; peptide 10 uM; replicate 2; competitor TCF4-Luc
[8] = biological target: beta-catenin-Halo (NanoBRET construct expressed in HEK293 cells) (Homo sapiens (Human)) (UniProt P35222); assay: NanoBRET, HEK293 cells with Bcat-Halo and TCF4-Luc; plate row E (2.5 uM by plate map), plate column 5
[9] = biological target: beta-catenin-Halo (NanoBRET construct expressed in HEK293 cells) (Homo sapiens (Human)) (UniProt P35222); assay: NanoBRET, HEK293 cells with Bcat-Halo and TCF4-Luc; plate row G (0.625 uM by plate map), plate column 7
[10] = biological target: beta-catenin-Halo NanoBRET construct (Homo sapiens (Human)) (UniProt P35222); assay: NanoBRET, Bcat-Halo/TCF4-Luc in HEK293 cells; peptide 1.25 uM; replicate 3; competitor TCF4-Luc
[11] = biological target: beta-catenin-Halo NanoBRET construct (Homo sapiens (Human)) (UniProt P35222); assay: NanoBRET, Bcat-Halo/TCF4-Luc in HEK293 cells; peptide 20 uM; replicate 3; competitor TCF4-Luc
[12] = biological target: beta-catenin-Halo (NanoBRET construct expressed in HEK293 cells) (Homo sapiens (Human)) (UniProt P35222); assay: NanoBRET, HEK293 cells with Bcat-Halo and TCF4-Luc; plate row E (2.5 uM by plate map), plate column 6
[13] = biological target: beta-catenin-Halo (NanoBRET construct expressed in HEK293 cells) (Homo sapiens (Human)) (UniProt P35222); assay: NanoBRET, HEK293 cells with Bcat-Halo and TCF4-Luc; plate row F (1.25 uM by plate map), plate column 6
[14] = biological target: beta-catenin-Halo NanoBRET construct (Homo sapiens (Human)) (UniProt P35222); assay: NanoBRET, Bcat-Halo/TCF4-Luc in HEK293 cells; peptide 1.25 uM; replicate 1; competitor TCF4-Luc
[15] = biological target: beta-catenin-Halo NanoBRET construct (Homo sapiens (Human)) (UniProt P35222); assay: NanoBRET raw acceptor reading, Bcat-Halo/TCF4-Luc in HEK293 cells; plate row G (0.625 uM by plate map); competitor TCF4-Luc
[16] = biological target: beta-catenin-Halo NanoBRET construct (Homo sapiens (Human)) (UniProt P35222); assay: NanoBRET, Bcat-Halo/TCF4-Luc in HEK293 cells; peptide 10 uM; replicate 1; competitor TCF4-Luc
[17] = biological target: beta-catenin-Halo NanoBRET construct (Homo sapiens (Human)) (UniProt P35222); assay: NanoBRET, Bcat-Halo/TCF4-Luc in HEK293 cells; peptide 2.5 uM; replicate 1; competitor TCF4-Luc
[18] = biological target: full-length beta-Catenin (Uniprot ID P35222) (Homo sapiens (Human)) (UniProt P35222); assay: fluorescence polarization competition: peptide titrated against 10 nM full-length beta-catenin + 10 nM 5FAM-TCF4(10-53) probe
Chain of full-length beta-Catenin (Uniprot ID P35222) (Homo sapiens (Human)) (P35222 2-781 limits assumed): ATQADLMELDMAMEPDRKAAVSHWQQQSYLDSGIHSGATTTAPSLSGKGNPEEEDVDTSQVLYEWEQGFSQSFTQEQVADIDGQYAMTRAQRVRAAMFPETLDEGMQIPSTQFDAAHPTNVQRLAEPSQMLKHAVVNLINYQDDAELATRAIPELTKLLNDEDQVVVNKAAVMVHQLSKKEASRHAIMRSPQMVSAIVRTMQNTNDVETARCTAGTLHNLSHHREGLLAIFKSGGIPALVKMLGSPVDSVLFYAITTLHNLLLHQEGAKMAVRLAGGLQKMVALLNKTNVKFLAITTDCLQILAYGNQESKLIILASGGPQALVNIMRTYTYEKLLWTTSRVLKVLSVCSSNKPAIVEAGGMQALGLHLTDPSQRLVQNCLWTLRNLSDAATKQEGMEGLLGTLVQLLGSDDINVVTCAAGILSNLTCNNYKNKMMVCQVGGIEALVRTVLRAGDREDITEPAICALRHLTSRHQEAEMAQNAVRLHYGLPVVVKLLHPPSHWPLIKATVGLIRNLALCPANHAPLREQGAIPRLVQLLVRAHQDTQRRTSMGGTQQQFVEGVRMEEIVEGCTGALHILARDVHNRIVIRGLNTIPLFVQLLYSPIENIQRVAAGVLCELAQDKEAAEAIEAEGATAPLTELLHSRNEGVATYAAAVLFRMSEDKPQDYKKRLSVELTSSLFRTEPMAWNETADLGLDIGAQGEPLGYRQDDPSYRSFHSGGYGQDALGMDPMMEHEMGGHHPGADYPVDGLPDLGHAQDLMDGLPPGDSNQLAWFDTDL

[19] = biological target: beta-catenin-Halo NanoBRET construct (Homo sapiens (Human)) (UniProt P35222); assay: NanoBRET, Bcat-Halo/TCF4-Luc in HEK293 cells; peptide 20 uM; replicate 1; competitor TCF4-Luc
[20] = biological target: beta-catenin-Halo (NanoBRET construct expressed in HEK293 cells) (Homo sapiens (Human)) (UniProt P35222); assay: NanoBRET, HEK293 cells with Bcat-Halo and TCF4-Luc; plate row D (5 uM by plate map), plate column 6
[21] = biological target: beta-catenin-Halo (NanoBRET construct expressed in HEK293 cells) (Homo sapiens (Human)) (UniProt P35222); assay: NanoBRET, HEK293 cells with Bcat-Halo and TCF4-Luc; plate row C (10 uM by plate map), plate column 6
[22] = biological target: beta-catenin-Halo (NanoBRET construct expressed in HEK293 cells) (Homo sapiens (Human)) (UniProt P35222); assay: NanoBRET, HEK293 cells with Bcat-Halo and TCF4-Luc; plate row C (10 uM by plate map), plate column 7
[23] = biological target: beta-catenin-Halo NanoBRET construct (Homo sapiens (Human)) (UniProt P35222); assay: NanoBRET raw acceptor reading, Bcat-Halo/TCF4-Luc in HEK293 cells; plate row D (5 uM by plate map); competitor TCF4-Luc
[24] = biological target: beta-catenin-Halo NanoBRET construct (Homo sapiens (Human)) (UniProt P35222); assay: NanoBRET, Bcat-Halo/TCF4-Luc in HEK293 cells; peptide 2.5 uM; replicate 2; competitor TCF4-Luc
[25] = biological target: beta-catenin-Halo NanoBRET construct (Homo sapiens (Human)) (UniProt P35222); assay: NanoBRET, Bcat-Halo/TCF4-Luc in HEK293 cells; peptide 0.625 uM; replicate 2; competitor TCF4-Luc

## Ac-[αAllylPro]F[tBuAla][B5]DDAADN[PyrS2][3Thi][Bta]Q-NH2 (staple 1-4, 4-11) [I-797]
[1]
  NanoBRET % inh @ 10 uM: 4.3%
[2]
  NanoBRET donor emission 450 BP (raw reading): 35700
[3]
  % Inhibition: -1.1%
[4]
  Acceptor 600 LP emission: 860 and 660 and 640
[5]
  % Inhibition: -16.9%
[6]
  % Inhibition: 1.7%
[7]
  % Inhibition: -21.9%
[8]
  NanoBRET donor emission 450 BP (raw reading): 34100
[9]
  NanoBRET donor emission 450 BP (raw reading): 47600
[10]
  % Inhibition: -4%
[11]
  % Inhibition: -19.5%
[12]
  NanoBRET donor emission 450 BP (raw reading): 22700
[13]
  NanoBRET donor emission 450 BP (raw reading): 34500
[14]
  % Inhibition: -24.8%
[15]
  Acceptor 600 LP emission: 410 and 440 and 530
[16]
  % Inhibition: -21.7%
[17]
  % Inhibition: -21.3%
[18]
  EC50: 10 µM
[19]
  % Inhibition: -36.7%
[20]
  NanoBRET donor emission 450 BP (raw reading): 29900
[21]
  NanoBRET donor emission 450 BP (raw reading): 25900
[22]
  NanoBRET donor emission 450 BP (raw reading): 40400
[23]
  Acceptor 600 LP emission: 510 and 420 and 630
[24]
  % Inhibition: 26.5%
[25]
  % Inhibition: -6.9%
